# Data reported in article PMC5898216 (Nature communications, 2015).
# T1: PriS, primase catalytic subunit, recombinant (S. solfataricus, UniProt Q97Z83 1-330)
# T1 sequence (looked up): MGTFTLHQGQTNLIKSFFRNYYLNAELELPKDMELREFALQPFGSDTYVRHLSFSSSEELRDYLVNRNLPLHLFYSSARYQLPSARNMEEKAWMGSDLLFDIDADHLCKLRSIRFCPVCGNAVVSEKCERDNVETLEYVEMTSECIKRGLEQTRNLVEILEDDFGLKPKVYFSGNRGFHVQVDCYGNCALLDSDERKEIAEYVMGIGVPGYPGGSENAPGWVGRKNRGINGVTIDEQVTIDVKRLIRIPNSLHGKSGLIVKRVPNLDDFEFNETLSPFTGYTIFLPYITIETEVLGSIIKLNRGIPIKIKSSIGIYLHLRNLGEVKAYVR
# T2: PriSL heterodimer (PriS and PriL), recombinant (S. solfataricus, UniProt Q97Z83 1-330; Q9UWW1 1-307)
# T2 sequence (looked up) 1: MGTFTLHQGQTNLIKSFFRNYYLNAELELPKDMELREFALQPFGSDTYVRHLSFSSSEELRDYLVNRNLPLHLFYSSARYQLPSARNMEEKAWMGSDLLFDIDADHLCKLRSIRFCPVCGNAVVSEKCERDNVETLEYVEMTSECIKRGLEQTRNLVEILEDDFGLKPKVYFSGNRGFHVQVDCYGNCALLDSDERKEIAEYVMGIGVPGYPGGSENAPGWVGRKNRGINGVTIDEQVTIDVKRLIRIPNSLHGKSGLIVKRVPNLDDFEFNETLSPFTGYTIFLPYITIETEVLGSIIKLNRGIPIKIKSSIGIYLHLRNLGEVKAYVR
# T2 sequence (looked up) 2: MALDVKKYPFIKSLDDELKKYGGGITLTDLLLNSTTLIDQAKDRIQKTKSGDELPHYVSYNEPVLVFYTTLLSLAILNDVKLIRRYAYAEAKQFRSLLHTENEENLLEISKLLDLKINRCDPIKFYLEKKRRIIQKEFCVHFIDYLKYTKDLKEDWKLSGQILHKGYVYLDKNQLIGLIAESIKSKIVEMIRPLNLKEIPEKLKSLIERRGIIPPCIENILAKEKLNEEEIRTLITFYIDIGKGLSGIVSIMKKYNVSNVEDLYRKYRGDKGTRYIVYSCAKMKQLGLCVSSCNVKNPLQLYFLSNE
# B1: PriL, primase large noncatalytic subunit, recombinant (natural protein, S. solfataricus, UniProt Q9UWW1 1-307, looked up)
# chain: MALDVKKYPFIKSLDDELKKYGGGITLTDLLLNSTTLIDQAKDRIQKTKSGDELPHYVSYNEPVLVFYTTLLSLAILNDVKLIRRYAYAEAKQFRSLLHTENEENLLEISKLLDLKINRCDPIKFYLEKKRRIIQKEFCVHFIDYLKYTKDLKEDWKLSGQILHKGYVYLDKNQLIGLIAESIKSKIVEMIRPLNLKEIPEKLKSLIERRGIIPPCIENILAKEKLNEEEIRTLITFYIDIGKGLSGIVSIMKKYNVSNVEDLYRKYRGDKGTRYIVYSCAKMKQLGLCVSSCNVKNPLQLYFLSNE
# Experiments:
# [1] = biological target: T1, PriS, primase catalytic subunit, …; experiment: SEC
# [2] = biological target: B1; experiment: ITC
# [3] = biological target: T2, PriSL heterodimer (PriS and PriL), …; experiment: SEC
Binder,binding result [1],stoichiometry N [2],binding result [3]
B1,binds,–,–
"PriX (product of Sso0502), recombinant full-length protein (natural protein, S. solfataricus, UniProt Q97ZS7 1-154, looked up) MSQEKKAKKIILHYPDDTPAGYIEYAEGSSSIYDNEGNFLFKVEGKFPPQPKKSSDYSWIEKVLEMGLQDSRKRFILYVASRYLVNVKGVNEDEALQTLKEFYYKLQSGKVYESWLKSVINGVKKKGLLPWSLKRIEERDKEMYNEIIRVLKNS",–,1,binds
